Source: the supplement of paper PMC10724198
± gives the standard deviation of the averaged measurements.

System: Saccharomyces cerevisiae
Experiment: protein stability index of tFT-peptide fusion (C-terminal peptide) (PSI (0-1 scale)); higher = more stable (slower turnover)
Conditions: temperature: 30 C
Procedure: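 MPS profiling in S. cerevisiae of the yeast C-terminome library: the last 12 aa of each annotated ORF are fused to the C-terminus of a sfGFP-mCherry timer, after a GGGS linker. Cells are FACS-sorted into 8 mCherry/sfGFP bins and deep-sequenced. PSI runs from 0 (unstable) to 1 (stable); wild type and das1Δ backgrounds, two technical replicates each.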

[1] = genetic background: das1 deletion

Sequence | protein stability index [1] | protein stability index (genetic background: wild type)
NENLSNELQPSL [AME1 C-terminal 12 aa] | 0.678 ± 0.009 | 0.759 ± 0.072
NEQFDHKFDETL [APL4 C-terminal 12 aa] | 0.726 ± 0.015 | 0.671 ± 0.01
NFEKPCLIQDGK [FMP48 C-terminal 12 aa] | 0.717 ± 0.051 | 0.706 ± 0.033
NFTIHRPLNNGR [YDL062W C-terminal 12 aa] | 0.731 ± 0.044 | 0.734 ± 0.027
NFTTNEYFIHTS [YNL226W C-terminal 12 aa] | 0.7352 ± 0.0013 | 0.737 ± 0.018
NGEIMTCWEWKE [HEH2 C-terminal 12 aa] | 0.691 ± 0.034 | 0.686 ± 0.019
NGINNSSATYKI [ULA1 C-terminal 12 aa] | 0.7027 ± 0.0063 | 0.71 ± 0.038
NGLWEQEKTEKR [YKR041W C-terminal 12 aa] | 0.716 ± 0.025 | 0.733 ± 0.061
NGNNVASLNTKK [TAF12 C-terminal 12 aa] | 0.6865 ± 0.0016 | 0.664 ± 0.011
NGYFGYAPGHYP [OPT2 C-terminal 12 aa] | 0.6844 ± 0.0056 | 0.708 ± 0.031
NILPMTYLLKKK [DPI34 C-terminal 12 aa] | 0.697 ± 0.049 | 0.6405 ± 0.0054
NILVIVYELLLG [YOS1 C-terminal 12 aa] | 0.215 ± 0.023 | 0.203 ± 0.013
NINGTTAAVDVN [PAP1 C-terminal 12 aa] | 0.661 ± 0.0093 | 0.658 ± 0.01
NKTNNKKKHGKK [CLU1 C-terminal 12 aa] | 0.698 ± 0.044 | 0.713 ± 0.024
NLEFETEHNVTN [NDC80 C-terminal 12 aa] | 0.677 ± 0.012 | 0.708 ± 0.013
NLELGGLNMDFL [PGD1 C-terminal 12 aa] | 0.7171 ± 0.0022 | 0.708 ± 0.047
NLLRFIVGVDVL [YDR426C C-terminal 12 aa] | 0.639 ± 0.0092 | 0.638 ± 0.0082
NNDDSANDLIDR [CCH1 C-terminal 12 aa] | 0.649 ± 0.013 | 0.681 ± 0.02
NNYNLWFRLSSS [ECL1 C-terminal 12 aa] | 0.702 ± 0.027 | 0.668 ± 0.055
NPADYLLEFGSG [RTG3 C-terminal 12 aa] | 0.7103 ± 0.0023 | 0.72 ± 0.029
NPFEYENFINIE [YOR263C C-terminal 12 aa] | 0.7418 ± 0.0062 | 0.721 ± 0.052

Sequence | protein stability index [1] | protein stability index (genetic background: wild type)
NPVGVPNDDHHH [COX4 C-terminal 12 aa] | 0.724 ± 0.0031 | 0.668 ± 0.022
NQFSQPPSNVEF [SCD6 C-terminal 12 aa] | 0.684 ± 0.025 | 0.697 ± 0.019
NQYANNLNLIDM [YAP1801 C-terminal 12 aa] | 0.694 ± 0.026 | 0.672 ± 0.029
NSDRLSPMEIYN [SPO14 C-terminal 12 aa] | 0.7118 ± 0.007 | 0.6799 ± 0.0022
NSGSAATDSPFN [STS1 C-terminal 12 aa] | 0.727 ± 0.013 | 0.674 ± 0.034
NSIDIGSRLSLM [PEX1 C-terminal 12 aa] | 0.704 ± 0.0078 | 0.68911 ± 4.9e-05
NSKVMNIKALDH [MRPL10 C-terminal 12 aa] | 0.6653 ± 0.0031 | 0.6725 ± 0.0055
NSLTSLSIYAFL [YEL018C-A C-terminal 12 aa] | 0.7094 ± 0.0019 | 0.685 ± 0.022
NSNKKKGFKSRR [DRS1 C-terminal 12 aa] | 0.682 ± 0.017 | 0.732 ± 0.0088
NTANRIIEELLK [UBC1 C-terminal 12 aa] | 0.68955 ± 0.00029 | 0.67 ± 0.032
NTMGKSGRHNIT [YOR282W C-terminal 12 aa] | 0.6851 ± 0.0044 | 0.685 ± 0.032
NVGKQLSNEIIY [PRP28 C-terminal 12 aa] | 0.695 ± 0.045 | 0.686 ± 0.042
NVLGEPFDRYLD [UTP10 C-terminal 12 aa] | 0.724 ± 0.017 | 0.716 ± 0.013
NVPVSNGTTAAQ [UTP23 C-terminal 12 aa] | 0.695 ± 0.013 | 0.691 ± 0.025
NYFIITCIGIIM [YPL261C C-terminal 12 aa] | 0.228 ± 0.029 | 0.247 ± 0.0067
NYGQYSSFWSLL [YOR055W C-terminal 12 aa] | 0.765 ± 0.019 | 0.754 ± 0.017
PADIATDHDITM [TAF8 C-terminal 12 aa] | 0.717 ± 0.013 | 0.685 ± 0.0044
PAKVGIVKGEEN [MGE1 C-terminal 12 aa] | 0.693 ± 0.021 | 0.709 ± 0.015
PCRYLELRKFGR [TPN1 C-terminal 12 aa] | 0.7005 ± 0.0046 | 0.74 ± 0.045
PFGNGFKMNFGL [JEM1 C-terminal 12 aa] | 0.736 ± 0.038 | 0.677 ± 0.058
